Data as given in paper PMC8219681, “Inhibition of MRN activity by a telomere protein motif” (Nature Communications, 2021).

T1: MBP-Rif2-min (S. cerevisiae Rif2 F8E P10N), Q06208
T1 chain: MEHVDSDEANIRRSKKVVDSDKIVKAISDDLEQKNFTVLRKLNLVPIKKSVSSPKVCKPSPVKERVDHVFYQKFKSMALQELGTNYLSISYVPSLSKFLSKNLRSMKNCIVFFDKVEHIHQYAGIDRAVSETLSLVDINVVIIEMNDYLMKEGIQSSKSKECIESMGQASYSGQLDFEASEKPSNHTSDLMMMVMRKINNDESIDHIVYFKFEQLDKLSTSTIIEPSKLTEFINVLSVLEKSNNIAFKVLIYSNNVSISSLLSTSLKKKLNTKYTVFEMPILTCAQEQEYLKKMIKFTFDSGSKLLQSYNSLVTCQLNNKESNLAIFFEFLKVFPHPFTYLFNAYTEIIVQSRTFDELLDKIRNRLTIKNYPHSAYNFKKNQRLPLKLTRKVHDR

T2: Rif2 (Saccharomyces cerevisiae, UniProt Q06208 1-395)
T2 sequence: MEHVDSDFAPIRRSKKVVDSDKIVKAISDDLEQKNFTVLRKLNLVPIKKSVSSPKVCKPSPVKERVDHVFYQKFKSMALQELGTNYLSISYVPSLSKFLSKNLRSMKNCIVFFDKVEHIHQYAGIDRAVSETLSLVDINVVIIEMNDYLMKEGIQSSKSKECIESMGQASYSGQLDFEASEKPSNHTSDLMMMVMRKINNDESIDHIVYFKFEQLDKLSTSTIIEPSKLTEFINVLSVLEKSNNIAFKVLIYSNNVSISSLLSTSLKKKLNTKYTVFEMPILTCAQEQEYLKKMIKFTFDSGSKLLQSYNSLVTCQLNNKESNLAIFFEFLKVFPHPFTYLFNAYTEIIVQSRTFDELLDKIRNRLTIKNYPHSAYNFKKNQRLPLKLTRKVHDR

T3: Rif2-min (Saccharomyces cerevisiae, UniProt Q06208 1-395, F8E;P10N)
T3 sequence: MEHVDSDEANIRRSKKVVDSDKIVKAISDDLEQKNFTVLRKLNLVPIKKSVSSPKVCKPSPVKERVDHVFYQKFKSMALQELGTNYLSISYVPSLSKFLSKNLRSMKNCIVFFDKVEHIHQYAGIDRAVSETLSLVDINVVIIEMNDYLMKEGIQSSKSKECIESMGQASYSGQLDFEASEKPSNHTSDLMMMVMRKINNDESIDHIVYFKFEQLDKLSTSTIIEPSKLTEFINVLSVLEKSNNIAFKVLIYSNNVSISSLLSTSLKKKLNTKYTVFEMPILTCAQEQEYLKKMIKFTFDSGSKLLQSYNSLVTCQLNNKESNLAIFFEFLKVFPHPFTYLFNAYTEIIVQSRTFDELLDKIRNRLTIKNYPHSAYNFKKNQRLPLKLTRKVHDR


What was measured:
[1] = biological target: T1, MBP-Rif2-min (S. cerevisiae Rif2 F8E …); assay: pull-down (amylose-immobilized MBP-Rif2-min bait, Western blot with anti-Rad50 antibody, quantified); conditions: chain shown with the change; three independent blots; mean with SEM; parent: est. 100; read off a plot
Rif2 = biological target: T2, Rif2; assay: EMSA; 5 mM Mg2+, 1 mM Mn2+, 1 mM ATP; 25 mM Tris-acetate pH 7.5, 1 mM DTT, 5 mM Mg acetate, 1 mM Mn acetate, 0.25 mg/ml BSA, 1 mM PEP, 1 mM ATP, 80 U/ml pyruvate kinase, 1 nM DNA, 30 C 30 min; 6% PAGE in TAE; conditions: protein: recombinant; tags: C-terminal His (N-terminal MBP cleaved with PreScission); label: 32P; blunt
Rif2-min = biological target: T3, Rif2-min; assay: as above; conditions: protein: recombinant; tags: C-terminal His (N-terminal MBP cleaved with PreScission); label: 32P; blunt

Row | percent of parent (Relative value) [1] | Binder | binding result (Rif2) | binding result (Rif2-min)
1 | 14 | m3; m1 Rad50:K81I; Rif2:F8E; Rif2:P10N (protein) MSAIYKLSIQGIRSFDSNDRETIEFGKPLTLIVGMNGSGKTTIIECLKYATTGDLPPNSKGGVFIHDPKITGEKDIRAQVILAFTSANGLNMIVTRNIQLLMKKTTTTFKTLEGQLVAINNSGDRSTLSTRSLELDAQVPLYLGVPKAILEYVIFCHQEDSLWPLSEPSNLKKKFDEIFQAMKFTKALDNLKSIKKDMSVDIKLLKQSVEHLKLDKDRSKAMKLNIHQLQTKIDQYNEEVSEIESQLNEITEKSDKLFKSNQDFQKILSKVENLKNTKLSISDQVKRLSNSIDILDLSKPDLQNLLANFSKVLMDKNNQLRDLETDISSLKDRQSSLQSLSNSLIRRQGELEAGKETYEKNRNHLSSLKEAFQHKFQGLSNIENSDMAQVNHEMSQFKAFISQDLTDTIDQFAKDIQLKETNLSDLIKSITVDSQNLEYNKKDRSKLIHDSEELAEKLKSFKSLSTQDSLNHELENLKTYKEKLQSWESENIIPKLNQKIEEKNNEMIILENQIEKFQDRIMKTNQQADLYAKLGLIKKSINTKLDELQKITEKLQNDSRIRQVFPLTQEFQRADLEMDFQKLFINMQKNIAINNKKMHELDRRYTNALYNLNTIEKDLQDNQKSKEKVIQLLSENLPEDCTIDEYNDVLEETELSYKTALENLKMHQTTLEFNRKALEIAERDSCCYLCSRKFENESFKSKLLQELKTKTDANFEKTLKDTVQNEKEYLHSLRLLEKHIITLNSINEKIDNSQKCLEKAKEETKTSKSKLDELEVDSTKLKDEKELAESEIRPLIEKFTYLEKELKDLENSSKTISEELSIYNTSEDGIQTVDELRDQQRKMNDSLRELRKTISDLQMEKDEKVRENSRMINLIKEKELTVSEIESSLTQKQNIDDSIRSKRENINDIDSRVKELEARIISLKNKKDEAQSVLDKVKNERDIQVRNKQKTVADINRLIDRFQTIYNEVVDFEAKGFDELQTTIKELELNKAQMLELKEQLDLKSNEVNEEKRKLADSNNEEKNLKQNLELIELKSQLQHIESEISRLDVQNAEAERDKYQEESLRLRTRFEKLSSENAGKLGEMKQLQNQIDSLTHQLRTDYKDIEKNYHKEWVELQTRSFVTDDIDVYSKALDSAIMKYHGLKMQDINRIIDELWKRTYSGTDIDTIKIRSDEVSSTVKGKSYNYRVVMYKQDVELDMRGRCSAGQKVLASIIIRLALSETFGANCGVIALDEPTTNLDEENIESLAKSLHNIINMRRHQKNFQLIVITHDEKFLGHMNAAAFTDHFFKVKRDDRQKSQIEWVDINRVTY |  | 
2 |  | PC1253C/PC1253B 50 bp dsDNA (dsDNA, 3'-terminal biotin (stated for the nuclease substrate; strand(s) ambiguous; streptavidin not mentioned for EMSA)) DNA 1: AACGTCATAGACGATTACATTGCTAGGACATCTTTGCCCACGTTGACCCA DNA 2: TGGGTCAACGTGGGCAAAGATGTCCTAGCAATGTAATCGTCTATGACGTT | binds | binds
